# Laboratory results taken from patent US20030068675, “Position dependent recognition of GNN nucleotide triplets by zinc fingers” (published 2003).
# T1: ZFP SBS#1418 (synthetic)
# T1 chain: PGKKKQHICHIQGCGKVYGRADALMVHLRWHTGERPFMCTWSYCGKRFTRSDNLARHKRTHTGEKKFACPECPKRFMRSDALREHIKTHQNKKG
# T2: ZFP SBS#1402 (synthetic)
# T2 chain: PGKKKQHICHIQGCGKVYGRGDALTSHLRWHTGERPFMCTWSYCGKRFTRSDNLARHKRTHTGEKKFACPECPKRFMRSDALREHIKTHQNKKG
# T3: ZFP SBS#1401 (synthetic)
# T3 chain: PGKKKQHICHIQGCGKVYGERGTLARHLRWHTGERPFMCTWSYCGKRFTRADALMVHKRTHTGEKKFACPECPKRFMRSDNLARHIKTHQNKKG
# T4: ZFP SBS#1417 (synthetic)
# T4 chain: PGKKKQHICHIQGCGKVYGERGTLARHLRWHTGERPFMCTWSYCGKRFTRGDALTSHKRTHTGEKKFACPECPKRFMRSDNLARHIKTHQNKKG
# T5: ZFP SBS#1398 (synthetic)
# T5 chain: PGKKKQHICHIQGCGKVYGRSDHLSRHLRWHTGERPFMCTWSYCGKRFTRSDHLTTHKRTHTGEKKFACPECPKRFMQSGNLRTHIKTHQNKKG
# T6: ZFP SBS#1435 (synthetic)
# T6 chain: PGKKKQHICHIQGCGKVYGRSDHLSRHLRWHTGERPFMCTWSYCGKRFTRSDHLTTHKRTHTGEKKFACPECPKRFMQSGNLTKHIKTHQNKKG
# T7: ZFP SBS#1432 (synthetic)
# T7 chain: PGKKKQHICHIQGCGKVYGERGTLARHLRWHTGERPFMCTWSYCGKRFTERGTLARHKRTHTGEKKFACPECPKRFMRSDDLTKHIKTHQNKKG
# T8: ZFP SBS#1430 (synthetic)
# T8 chain: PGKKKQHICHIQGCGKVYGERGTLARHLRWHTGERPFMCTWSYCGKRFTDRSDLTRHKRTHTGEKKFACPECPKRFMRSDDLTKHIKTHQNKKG
# T9: ZFP SBS#1431 (synthetic)
# T9 chain: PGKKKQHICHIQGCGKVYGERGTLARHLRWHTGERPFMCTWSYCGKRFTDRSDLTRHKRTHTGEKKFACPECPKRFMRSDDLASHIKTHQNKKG
# T10: ZFP SBS#1414 (synthetic)
# T10 chain: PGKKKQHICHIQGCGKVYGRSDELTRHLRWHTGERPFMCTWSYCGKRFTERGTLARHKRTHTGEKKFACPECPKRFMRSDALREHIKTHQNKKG
# T11: ZFP SBS#1413 (synthetic)
# T11 chain: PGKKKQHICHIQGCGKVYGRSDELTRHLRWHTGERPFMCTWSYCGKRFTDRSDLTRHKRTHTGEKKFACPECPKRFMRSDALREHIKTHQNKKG
# T12: ZFP SBS#1422 (synthetic)
# T12 chain: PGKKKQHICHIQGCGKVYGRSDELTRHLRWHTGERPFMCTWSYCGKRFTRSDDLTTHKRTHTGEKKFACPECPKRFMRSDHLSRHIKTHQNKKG
# T13: ZFP SBS#1423 (synthetic)
# T13 chain: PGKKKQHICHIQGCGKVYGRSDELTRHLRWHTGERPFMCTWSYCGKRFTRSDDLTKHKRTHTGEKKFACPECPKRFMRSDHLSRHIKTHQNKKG
# T14: ZFP SBS#1424 (synthetic)
# T14 chain: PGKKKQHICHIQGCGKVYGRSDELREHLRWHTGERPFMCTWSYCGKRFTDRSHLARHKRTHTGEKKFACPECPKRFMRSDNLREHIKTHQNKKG
# T15: ZFP SBS#1427 (synthetic)
# T15 chain: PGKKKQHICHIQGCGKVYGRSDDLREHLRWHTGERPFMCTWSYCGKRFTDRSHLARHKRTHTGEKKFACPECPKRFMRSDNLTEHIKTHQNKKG
# T16: ZFP SBS#1408 (synthetic)
# T16 chain: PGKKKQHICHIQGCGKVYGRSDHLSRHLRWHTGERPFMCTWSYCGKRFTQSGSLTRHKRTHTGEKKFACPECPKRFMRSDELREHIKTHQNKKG
# T17: ZFP SBS#1409 (synthetic)
# T17 chain: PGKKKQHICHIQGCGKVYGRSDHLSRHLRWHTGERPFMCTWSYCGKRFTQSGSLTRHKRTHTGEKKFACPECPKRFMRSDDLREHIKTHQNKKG
# T18: ZFP SBS#1412 (synthetic)
# T18 chain: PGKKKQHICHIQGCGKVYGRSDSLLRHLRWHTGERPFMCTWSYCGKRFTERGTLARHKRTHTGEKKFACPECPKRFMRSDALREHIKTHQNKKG
# T19: ZFP SBS#1434 (synthetic)
# T19 chain: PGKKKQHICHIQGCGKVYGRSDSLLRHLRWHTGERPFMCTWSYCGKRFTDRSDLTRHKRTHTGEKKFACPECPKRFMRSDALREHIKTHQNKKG
# T20: ZFP SBS#1436 (synthetic, UniProt P08047)
# T20 chain: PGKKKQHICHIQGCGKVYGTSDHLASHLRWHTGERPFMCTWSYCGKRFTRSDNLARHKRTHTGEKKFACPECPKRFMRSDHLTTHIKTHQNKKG
# T21: ZFP SBS#1399 (synthetic, UniProt P08047)
# T21 chain: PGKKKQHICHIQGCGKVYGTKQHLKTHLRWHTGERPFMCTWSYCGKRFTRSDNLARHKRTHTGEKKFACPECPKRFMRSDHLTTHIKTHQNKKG
# T22: ZFP SBS#1410 (synthetic, UniProt P08047)
# T22 chain: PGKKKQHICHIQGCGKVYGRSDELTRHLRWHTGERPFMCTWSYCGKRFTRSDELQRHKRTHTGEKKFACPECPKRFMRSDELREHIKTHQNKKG
# T23: ZFP SBS#1415 (synthetic)
# T23 chain: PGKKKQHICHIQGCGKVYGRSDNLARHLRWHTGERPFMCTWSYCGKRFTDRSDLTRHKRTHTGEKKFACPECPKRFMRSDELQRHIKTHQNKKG
# T24: ZFP SBS#1416 (synthetic)
# T24 chain: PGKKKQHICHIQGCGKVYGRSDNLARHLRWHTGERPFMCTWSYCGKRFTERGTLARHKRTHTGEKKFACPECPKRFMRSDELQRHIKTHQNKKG
# T25: ZFP SBS#1405 (synthetic)
# T25 chain: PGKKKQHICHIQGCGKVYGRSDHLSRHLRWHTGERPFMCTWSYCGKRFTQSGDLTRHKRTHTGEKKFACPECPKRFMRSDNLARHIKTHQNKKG
# T26: ZFP SBS#1404 (synthetic)
# T26 chain: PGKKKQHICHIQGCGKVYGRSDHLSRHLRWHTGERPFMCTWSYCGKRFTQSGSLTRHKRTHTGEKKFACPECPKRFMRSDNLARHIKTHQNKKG
# How the values were obtained:
# Test in all cases: EMSA
# Settings in all cases: tags: MBP fusion
# ZFP SBS#1406 = ZFP SBS#1406 (synthetic)
# ZFP SBS#1406 (synthetic), sequence (chain, as listed by the source): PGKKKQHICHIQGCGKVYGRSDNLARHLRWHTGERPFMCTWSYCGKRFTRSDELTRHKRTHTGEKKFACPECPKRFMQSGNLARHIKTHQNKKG
# In short: (§1)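 Purified ZFP was titrated against labeled double-stranded target (1 nM or lower, at least 10-fold below expected Kd) carrying the natural binding site with flanks. Binding buffer was 10 mM Tris pH 7.5, 100 mM KCl, 1 mM MgCl2, 0.1 mM ZnCl2, 5 mM DTT, 10% glycerol, 0.02% BSA, with equilibration for at least 45 min. Bound and free target were separated on a 10% polyacrylamide gel.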
# ZFP SBS#1407 = ZFP SBS#1407 (synthetic)
# ZFP SBS#1407 (synthetic), sequence (chain, as listed by the source): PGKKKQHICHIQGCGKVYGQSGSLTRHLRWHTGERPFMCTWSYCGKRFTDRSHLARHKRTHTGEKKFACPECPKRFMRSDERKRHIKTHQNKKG
# In short: as §1
# ZFP SBS#1418 = target: T1, ZFP SBS#1418
# In short: as §1
# ZFP SBS#1402 = target: T2, ZFP SBS#1402
# In short: as §1
# ZFP SBS#1441 = ZFP SBS#1441 (synthetic)
# ZFP SBS#1441 (synthetic), sequence (chain, as listed by the source): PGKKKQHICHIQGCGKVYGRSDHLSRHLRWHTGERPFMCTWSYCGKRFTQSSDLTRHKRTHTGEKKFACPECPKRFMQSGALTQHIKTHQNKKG
# In short: as §1
# ZFP SBS#1401 = target: T3, ZFP SBS#1401
# In short: as §1
# ZFP SBS#1417 = target: T4, ZFP SBS#1417
# In short: as §1
# ZFP SBS#1439 = ZFP SBS#1439 (synthetic)
# ZFP SBS#1439 (synthetic), sequence (chain, as listed by the source): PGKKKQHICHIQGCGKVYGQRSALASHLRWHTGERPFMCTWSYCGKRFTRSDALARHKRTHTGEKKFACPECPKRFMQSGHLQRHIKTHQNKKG
# In short: as §1
# ZFP SBS#1440 = ZFP SBS#1440 (synthetic)
# ZFP SBS#1440 (synthetic), sequence (chain, as listed by the source): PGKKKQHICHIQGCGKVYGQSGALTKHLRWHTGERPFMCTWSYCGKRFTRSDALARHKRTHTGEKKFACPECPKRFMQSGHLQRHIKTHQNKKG
# In short: as §1
# ZFP SBS#1428 = ZFP SBS#1428 (synthetic)
# In short: as §1
# ZFP SBS#1429 = ZFP SBS#1429 (synthetic)
# In short: as §1
# ZFP SBS#1411 = ZFP SBS#1411 (synthetic)
# In short: as §1
# ZFP SBS#1398 = target: T5, ZFP SBS#1398
# In short: as §1
# ZFP SBS#1435 = target: T6, ZFP SBS#1435
# In short: as §1
# ZFP SBS#1432 = target: T7, ZFP SBS#1432
# In short: as §1
# ZFP SBS#1430 = target: T8, ZFP SBS#1430
# In short: as §1
# ZFP SBS#1431 = target: T9, ZFP SBS#1431
# In short: as §1
# ZFP SBS#1414 = target: T10, ZFP SBS#1414
# In short: as §1
# ZFP SBS#1413 = target: T11, ZFP SBS#1413
# In short: as §1
# ZFP SBS#1422 = target: T12, ZFP SBS#1422
# In short: as §1
# ZFP SBS#1423 = target: T13, ZFP SBS#1423
# In short: as §1
# ZFP SBS#1424 = target: T14, ZFP SBS#1424
# In short: as §1
# ZFP SBS#1427 = target: T15, ZFP SBS#1427
# In short: as §1
# ZFP SBS#1408 = target: T16, ZFP SBS#1408
# In short: as §1
# ZFP SBS#1409 = target: T17, ZFP SBS#1409
# In short: as §1
# ZFP SBS#1412 = target: T18, ZFP SBS#1412
# In short: as §1
# ZFP SBS#1434 = target: T19, ZFP SBS#1434
# In short: as §1
# ZFP SBS#1436 = target: T20, ZFP SBS#1436
# In short: as §1
# ZFP SBS#1399 = target: T21, ZFP SBS#1399
# In short: as §1
# ZFP SBS#1410 = target: T22, ZFP SBS#1410
# In short: as §1
# ZFP SBS#1415 = target: T23, ZFP SBS#1415
# In short: as §1
# ZFP SBS#1416 = target: T24, ZFP SBS#1416
# In short: as §1
# ZFP SBS#1405 = target: T25, ZFP SBS#1405
# In short: as §1
# ZFP SBS#1404 = target: T26, ZFP SBS#1404
# In short: as §1
binder,measurement,setting,value
GAAGCGGAG (dsDNA) DNA 1: GAAGCGGAG DNA 2: CTCCGCTTC,Kd,ZFP SBS#1406,0.025 nM
GCGGGCGCA (dsDNA) DNA 1: GCGGGCGCA DNA 2: TGCGCCCGC,Kd,ZFP SBS#1407,0.585 nM
CTGGAGTTG (dsDNA) DNA 1: CTGGAGTTG DNA 2: CAACTCCAG,Kd,ZFP SBS#1418,0.241 nM
same,Kd,ZFP SBS#1402,0.15 nM
ATAGCTGGG (dsDNA) DNA 1: ATAGCTGGG DNA 2: CCCAGCTAT,Kd,ZFP SBS#1441,0.262 nM
GAGTTGGCC (dsDNA) DNA 1: GAGTTGGCC DNA 2: GGCCAACTC,Kd,ZFP SBS#1401,0.167 nM
same,Kd,ZFP SBS#1417,1.4 nM
GGAGTGTTA (dsDNA) DNA 1: GGAGTGTTA DNA 2: TAACACTCC,Kd,ZFP SBS#1439,0.075 nM
same,Kd,ZFP SBS#1440,0.035 nM
TGAGGCGAG (dsDNA) DNA 1: TGAGGCGAG DNA 2: CTCGCCTCA,Kd,ZFP SBS#1428,0.102 nM
same,Kd,ZFP SBS#1429,0.074 nM
same,Kd,ZFP SBS#1411,0.282 nM
TAATGGGGG (dsDNA) DNA 1: TAATGGGGG DNA 2: CCCCCATTA,Kd,ZFP SBS#1398,0.065 nM
same,Kd,ZFP SBS#1435,0.057 nM
TCGGCCGCC (dsDNA) DNA 1: TCGGCCGCC DNA 2: GGCGGCCGA,Kd,ZFP SBS#1432,1.78 nM
same,Kd,ZFP SBS#1430,0.352 nM
same,Kd,ZFP SBS#1431,6.17 nM
CTGGCCGCG (dsDNA) DNA 1: CTGGCCGCG DNA 2: CGCGGCCAG,Kd,ZFP SBS#1414,0.914 nM
same,Kd,ZFP SBS#1413,0.152 nM
GGGTCGGCG (dsDNA) DNA 1: GGGTCGGCG DNA 2: CGCCGACCC,Kd,ZFP SBS#1422,0.064 nM
same,Kd,ZFP SBS#1423,0.034 nM
CAGGGCCCG (dsDNA) DNA 1: CAGGGCCCG DNA 2: CGGGCCCTG,Kd,ZFP SBS#1424,1.37 nM
same,Kd,ZFP SBS#1427,0.271 nM
CCGGCAGGG (dsDNA) DNA 1: CCGGCAGGG DNA 2: CCCTGCCGG,Kd,ZFP SBS#1408,0.305 nM
same,Kd,ZFP SBS#1409,0.153 nM
CTGGCCGTG (dsDNA) DNA 1: CTGGCCGTG DNA 2: CACGGCCAG,Kd,ZFP SBS#1412,0.172 nM
same,Kd,ZFP SBS#1434,0.051 nM
TGGGAGTGT (dsDNA) DNA 1: TGGGAGTGT DNA 2: ACACTCCCA,Kd,ZFP SBS#1436,0.026 nM
same,Kd,ZFP SBS#1399,0.1 nM
CCGGCGGCG (dsDNA) DNA 1: CCGGCGGCG DNA 2: CGCCGCCGG,Kd,ZFP SBS#1410,0.814 nM
GCGGCCGAG (dsDNA) DNA 1: GCGGCCGAG DNA 2: CTCGGCCGC,Kd,ZFP SBS#1415,0.102 nM
same,Kd,ZFP SBS#1416,0.153 nM
GAGGCAGGG (dsDNA) DNA 1: GAGGCAGGG DNA 2: CCCTGCCTC,Kd,ZFP SBS#1405,0.045 nM
same,Kd,ZFP SBS#1404,0.022 nM
